Source: patent US20240255507A1 (SYSMEX, published 2024)

B1: HKU9 wild-type RBD (other)
chain: SYCTPPYSVLQDPPQPVVWRRYMLYDCVFDFTVVVDSLPTHQLQCYGVSPRRLASMCYGSVTLDVMRINETHLNNLFNRVPDTFSLYNYALPDNFYGCLHAFYLNSTAPYAVANRFPIKPGGRQSNSAFIDTVINAAHYSPFSYVYGLAVITLKPAAGSKLVCPVAN
B2: REGN10933 (antibody, V domains shown)
VH: QVQLVESGGGLVKPGGSLRLSCAASGFTFSDYYMSWIRQAPGKGLEWVSYITYSGSTIYYADSVKGRFTISRDNAKSSLYLQMNSLRAEDTAVYYCARDRGTTMVPFDYWGQGTLVTVSS
VL: DIQMTQSPSSLSASVGDRVTITCQASQDITNYLNWYQQKPGKAPKLLIYAASNLETGVPSRFSGSGSGTDFTFTISGLQPEDIATYYCQQYDNLPLTFGGGTKVEIKR
B3: CV30 (antibody, V domains shown)
VH: EVQLVESGGGLIQPGGSLRLSCAASGVIVSSNYMSWVRQAPGKGLEWVSVIYSGGSTYYADSVKGRFTISRDNSKNTLYLQMNSLRAEDTAVYYCARDLDVSGGMDVWGQGTTVTVSS
VL: not shown
B4: REGN10987 (antibody, V domains shown)
VH: QVQLVESGGGVVQPGRSLRLSCAASGFTFSNYAMYWVRQAPGKGLEWVAVISYDGSNKYYADSVKGRFTISRDNSKNTLYLQMNSLRTEDTAVYYCASGSDYGDYLLVYWGQGTLVTVSS
VL: QSALTQPASVSGSPGQSITISCTGTSSDVGGYNYVSWYQQHPGKAPKLMIYDVSKRPSGVSNRFSGSKSGNTASLTISGLQSEDEADYYCNSLTSISTWVFGGGTKLTVLR
B5: BD23 (antibody, V domains shown)
VH: QVQLVQSGSELKKPGASVKVSCKASGYTFTSYAMNWVRQAPGQGLEWMGWINTNTGNPTYAQGFTGRFVFSLDTSVSTAYLQISSLKAEDTAVYYCARPQGGSSWYRDYYYGMDVWGQGTTVTVSS
VL: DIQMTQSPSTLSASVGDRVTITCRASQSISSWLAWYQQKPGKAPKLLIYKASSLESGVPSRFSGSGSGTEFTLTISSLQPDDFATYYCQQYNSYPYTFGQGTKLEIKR
B6: CR3022 (antibody, V domains shown)
VH: QMQLVQSGTEVKKPGESLKISCKGSGYGFITYWIGWVRQMPGKGLEWMGIIYPGDSETRYSPSFQGQVTISADKSINTAYLQWSSLKASDTAIYYCAGGSGISTPMDVWGQGTTVTVSS
VL: DIQMTQSPSSLSASVGDRVTITCRASQSIYSALNWYQQKPGKAPKLLIYAASALQSGVPSRFSGSGSGTDFTLTISSLQPEDFATYYCQQTDIHPYTFGQGTKVEIKR

Assays:
[1] = biological target: T1, ACE2-hFc (AC2-H 5257, Acrobiosystems) (human, UniProt Q9BYF1 18-740); experiment: ELISA, antigen coated
T1 construct: also called ACE2-Fc

[2] = biological target: B1; experiment: ELISA, antigen coated
[3] = biological target: B1; experiment: ELISA, antigen coated, binder 1 µg/mL, chemiluminescence
[4] = biological target: T2, GCCDC1 wild-type RBD (coronavirus GCCDC1 strain (Nobecovirus …)); experiment: ELISA, antigen coated
[5] = biological target: T3, Hp wild-type RBD (coronavirus Hp strain (Hibecovirus …)); experiment: ELISA, antigen coated
[6] = biological target: T4, Zaria wild-type RBD (coronavirus Zaria strain (Hibecovirus …)); experiment: ELISA, antigen coated
[7] = biological target: SARS-CoV-2 wild-type RBD (SARS-CoV-2, UniProt P0DTC2 319-541); experiment: ELISA, antigen coated, binder 1 µg/mL, chemiluminescence
[8] = biological target: T2, GCCDC1 wild-type RBD; experiment: as above
[9] = biological target: T3, Hp wild-type RBD; experiment: as above
[10] = biological target: T4, Zaria wild-type RBD; experiment: as above

T1 sequence (Q9BYF1 18-740 limits assumed): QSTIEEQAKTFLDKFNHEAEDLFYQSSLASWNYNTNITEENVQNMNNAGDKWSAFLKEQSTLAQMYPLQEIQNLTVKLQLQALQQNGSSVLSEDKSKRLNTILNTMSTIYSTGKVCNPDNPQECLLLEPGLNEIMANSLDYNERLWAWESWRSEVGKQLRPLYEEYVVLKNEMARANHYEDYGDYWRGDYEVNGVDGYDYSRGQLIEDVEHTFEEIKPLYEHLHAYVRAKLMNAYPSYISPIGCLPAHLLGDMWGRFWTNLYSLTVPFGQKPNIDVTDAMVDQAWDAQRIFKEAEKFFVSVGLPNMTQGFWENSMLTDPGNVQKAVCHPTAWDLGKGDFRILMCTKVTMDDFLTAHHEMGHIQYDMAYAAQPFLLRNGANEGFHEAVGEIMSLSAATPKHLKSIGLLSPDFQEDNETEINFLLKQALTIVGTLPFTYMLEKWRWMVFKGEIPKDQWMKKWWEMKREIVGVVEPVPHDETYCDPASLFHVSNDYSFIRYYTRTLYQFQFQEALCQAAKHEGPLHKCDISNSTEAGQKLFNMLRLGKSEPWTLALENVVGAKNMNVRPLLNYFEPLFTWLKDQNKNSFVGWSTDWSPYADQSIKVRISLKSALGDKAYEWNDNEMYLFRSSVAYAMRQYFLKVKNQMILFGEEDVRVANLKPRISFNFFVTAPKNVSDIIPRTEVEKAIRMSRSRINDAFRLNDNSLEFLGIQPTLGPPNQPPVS

Row | Binder | binding result [1] | binding result [2] | signal intensity [3] | binding result [4] | binding result [5] | binding result [6] | signal intensity [7] | signal intensity [8] | signal intensity [9] | signal intensity [10]
1 | B1 | no binding (tested: 1 µg/mL) |  |  |  |  |  |  |  |  | 
2 | B2 |  | no binding (tested: 1 µg/mL) | 943 |  |  |  |  |  |  | 
3 | B3 |  | no binding (tested: 1 µg/mL) | 583 | no binding (tested: 1 µg/mL) | no binding (tested: 1 µg/mL) | no binding (tested: 1 µg/mL) | 921000 | 130 | 150 | 100
4 | B4 |  | no binding (tested: 1 µg/mL) | 1120 |  |  |  |  |  |  | 
5 | B5 |  | no binding (tested: 1 µg/mL) | 803 |  |  |  |  |  |  | 
6 | B6 |  | no binding (tested: 1 µg/mL) | 433 | no binding (tested: 1 µg/mL) | no binding (tested: 1 µg/mL) | no binding (tested: 1 µg/mL) | 1.07e+06 | 100 | 100 | 330
